Here are results for two substances from publication doi:10.1101/2024.07.10.602847.

This test concerns the target AeCRK^G359E-mCherry (Aeschynomene evenia). Put plainly: co-IP.

AeCRK^G359E-mCherry (receptor): the fold enrichment compared to the negative control MtLYK3-CFP is 7.37 fold.

AeRLCK2-YFP (natural protein): the fold enrichment compared to the negative control MtLYK3-CFP came to 2.9 fold.
